# T1: FcγRIIa R (human FcγRIIa, allotype R, Arg at position 131), extracellular domain with C-terminal His tag (human, UniProt P12318 34-217)
# T1 construct: extracellular domain; expressed in FreeStyle293 cells; analyte in Biacore; also called 2aR; FcgRIIa R
# T1 sequence (looked up): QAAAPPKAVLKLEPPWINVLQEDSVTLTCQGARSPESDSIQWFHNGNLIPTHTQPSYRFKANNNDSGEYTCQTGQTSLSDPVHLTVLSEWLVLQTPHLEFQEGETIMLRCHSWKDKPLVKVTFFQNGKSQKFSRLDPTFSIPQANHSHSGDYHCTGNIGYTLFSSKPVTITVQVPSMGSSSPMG
# B1: GpH7-B3 variant S337_02A/GpL16-k0 (antibody, human IgG1, kappa)
# heavy: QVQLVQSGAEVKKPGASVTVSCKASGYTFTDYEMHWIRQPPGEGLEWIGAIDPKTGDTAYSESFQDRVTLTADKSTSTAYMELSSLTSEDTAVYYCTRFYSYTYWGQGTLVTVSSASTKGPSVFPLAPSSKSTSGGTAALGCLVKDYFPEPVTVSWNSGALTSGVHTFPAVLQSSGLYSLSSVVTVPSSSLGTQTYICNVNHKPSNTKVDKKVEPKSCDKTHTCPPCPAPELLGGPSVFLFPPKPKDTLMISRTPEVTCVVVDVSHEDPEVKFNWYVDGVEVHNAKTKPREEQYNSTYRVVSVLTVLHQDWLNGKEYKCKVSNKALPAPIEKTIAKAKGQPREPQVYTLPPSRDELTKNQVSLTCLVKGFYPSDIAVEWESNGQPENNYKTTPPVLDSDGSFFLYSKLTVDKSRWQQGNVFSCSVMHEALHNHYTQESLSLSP
# light: DIVMTQSPLSLPVTPGEPASISCQASESLVHSNRNTYLHWYLQKPGQSPQLLIYKVSNRFSGVPDRFSGSGSGTDFTLKISRVEAEDVGVYYCSQNTHVPPTFGQGTKVEIERTVAAPSVFIFPPSDEQLKSGTASVVCLLNNFYPREAKVQWKVDNALQSGNSQESVTEQDSKDSTYSLSSTLTLSKADYEKHKVYACEVTHQGLSSPVTKSFNRGEC
# notes: homodimerized antibody, mutation in both H chains; also called Ho Ab
# B2: GpH7-B3 variant Q295_06M/GpL16-k0 (antibody, human IgG1, kappa)
# heavy: not shown
# light: B1 light
# notes: as for B1
# B3: GpH7-B3 variant P271_10E/GpL16-k0 (antibody, human IgG1, kappa)
# heavy: not shown
# light: B1 light
# notes: as for B1
# B4: GpH7-B3 variant P331_18N/GpL16-k0 (antibody, human IgG1, kappa)
# heavy: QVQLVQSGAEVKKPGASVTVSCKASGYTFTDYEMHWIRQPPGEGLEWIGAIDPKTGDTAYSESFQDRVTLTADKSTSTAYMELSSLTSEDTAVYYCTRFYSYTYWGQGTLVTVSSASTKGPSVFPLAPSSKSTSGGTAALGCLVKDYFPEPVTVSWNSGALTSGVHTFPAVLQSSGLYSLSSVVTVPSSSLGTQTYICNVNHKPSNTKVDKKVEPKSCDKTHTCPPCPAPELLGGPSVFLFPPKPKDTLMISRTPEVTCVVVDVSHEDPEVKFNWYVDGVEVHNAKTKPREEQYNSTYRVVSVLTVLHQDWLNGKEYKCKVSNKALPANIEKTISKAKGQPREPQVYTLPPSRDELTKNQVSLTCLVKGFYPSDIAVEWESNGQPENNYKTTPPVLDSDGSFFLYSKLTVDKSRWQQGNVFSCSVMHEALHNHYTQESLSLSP
# light: B1 light
# notes: as for B1
# B5: GpH7-B3 variant S267_06M/GpL16-k0 (antibody, human IgG1, kappa)
# heavy: not shown
# light: B1 light
# notes: as for B1
# B6: GpH7-B3 variant P331_03V/GpL16-k0 (antibody, human IgG1, kappa)
# heavy: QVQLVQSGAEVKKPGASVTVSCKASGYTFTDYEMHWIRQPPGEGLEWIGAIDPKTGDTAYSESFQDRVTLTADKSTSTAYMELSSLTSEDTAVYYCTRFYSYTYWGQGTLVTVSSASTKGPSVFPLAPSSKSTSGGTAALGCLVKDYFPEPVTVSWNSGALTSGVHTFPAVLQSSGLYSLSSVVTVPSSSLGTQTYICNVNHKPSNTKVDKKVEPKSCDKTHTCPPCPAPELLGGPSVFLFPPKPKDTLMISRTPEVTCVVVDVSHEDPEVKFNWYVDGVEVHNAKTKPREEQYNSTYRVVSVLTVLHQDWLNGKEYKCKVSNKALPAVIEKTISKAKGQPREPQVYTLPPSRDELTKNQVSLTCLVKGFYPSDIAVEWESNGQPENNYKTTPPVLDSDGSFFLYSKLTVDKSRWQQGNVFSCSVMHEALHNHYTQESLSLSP
# light: B1 light
# notes: as for B1
# B7: GpH7-B3 variant P331_14T/GpL16-k0 (antibody, human IgG1, kappa)
# heavy: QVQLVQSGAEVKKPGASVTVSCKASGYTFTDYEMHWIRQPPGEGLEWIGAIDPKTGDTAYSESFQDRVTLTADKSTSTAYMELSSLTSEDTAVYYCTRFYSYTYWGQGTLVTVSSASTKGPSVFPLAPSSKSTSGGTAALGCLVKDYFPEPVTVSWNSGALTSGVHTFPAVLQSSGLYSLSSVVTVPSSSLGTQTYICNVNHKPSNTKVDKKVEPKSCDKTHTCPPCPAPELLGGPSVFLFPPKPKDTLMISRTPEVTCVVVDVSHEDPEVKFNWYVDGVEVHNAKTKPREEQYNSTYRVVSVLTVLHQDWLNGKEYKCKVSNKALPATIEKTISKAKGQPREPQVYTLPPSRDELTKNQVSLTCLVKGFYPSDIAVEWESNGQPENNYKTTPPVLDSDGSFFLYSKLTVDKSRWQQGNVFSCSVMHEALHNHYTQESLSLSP
# light: B1 light
# notes: as for B1
# B8: GpH7-B3 variant P271_09D/GpL16-k0 (antibody, human IgG1, kappa)
# heavy: not shown
# light: B1 light
# notes: as for B1
# B9: GpH7-B3 variant S267_09D/GpL16-k0 (antibody, human IgG1, kappa)
# heavy: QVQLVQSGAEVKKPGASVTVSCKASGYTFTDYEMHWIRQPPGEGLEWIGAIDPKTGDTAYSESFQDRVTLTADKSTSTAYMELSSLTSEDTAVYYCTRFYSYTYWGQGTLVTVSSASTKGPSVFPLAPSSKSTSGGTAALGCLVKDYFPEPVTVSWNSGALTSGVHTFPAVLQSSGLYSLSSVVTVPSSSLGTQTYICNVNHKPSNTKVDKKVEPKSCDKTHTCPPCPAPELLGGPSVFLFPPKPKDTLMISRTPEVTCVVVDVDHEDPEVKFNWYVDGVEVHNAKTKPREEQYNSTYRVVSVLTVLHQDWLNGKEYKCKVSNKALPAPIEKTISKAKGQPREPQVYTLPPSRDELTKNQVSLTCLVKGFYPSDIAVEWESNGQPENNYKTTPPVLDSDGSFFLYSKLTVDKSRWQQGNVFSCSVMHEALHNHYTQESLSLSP
# light: B1 light
# notes: as for B1
# B10: GpH7-B3 variant S239_14T/GpL16-k0 (antibody, human IgG1, kappa)
# heavy: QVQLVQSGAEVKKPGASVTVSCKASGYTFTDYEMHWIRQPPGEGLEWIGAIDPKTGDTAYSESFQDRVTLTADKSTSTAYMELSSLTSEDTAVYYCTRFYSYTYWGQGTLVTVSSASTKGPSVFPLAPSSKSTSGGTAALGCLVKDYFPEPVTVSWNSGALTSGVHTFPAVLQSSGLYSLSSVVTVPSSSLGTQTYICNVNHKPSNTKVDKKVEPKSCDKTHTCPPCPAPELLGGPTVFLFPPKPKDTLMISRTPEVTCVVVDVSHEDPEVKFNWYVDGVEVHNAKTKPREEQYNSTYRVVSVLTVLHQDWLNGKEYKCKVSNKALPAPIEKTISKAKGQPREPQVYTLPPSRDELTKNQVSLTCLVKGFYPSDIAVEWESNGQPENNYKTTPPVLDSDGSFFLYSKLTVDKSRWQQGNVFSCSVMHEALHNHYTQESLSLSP
# light: B1 light
# notes: as for B1
# B11: GpH7-B3 variant P238_10E/GpL16-k0 (antibody, human IgG1, kappa)
# heavy: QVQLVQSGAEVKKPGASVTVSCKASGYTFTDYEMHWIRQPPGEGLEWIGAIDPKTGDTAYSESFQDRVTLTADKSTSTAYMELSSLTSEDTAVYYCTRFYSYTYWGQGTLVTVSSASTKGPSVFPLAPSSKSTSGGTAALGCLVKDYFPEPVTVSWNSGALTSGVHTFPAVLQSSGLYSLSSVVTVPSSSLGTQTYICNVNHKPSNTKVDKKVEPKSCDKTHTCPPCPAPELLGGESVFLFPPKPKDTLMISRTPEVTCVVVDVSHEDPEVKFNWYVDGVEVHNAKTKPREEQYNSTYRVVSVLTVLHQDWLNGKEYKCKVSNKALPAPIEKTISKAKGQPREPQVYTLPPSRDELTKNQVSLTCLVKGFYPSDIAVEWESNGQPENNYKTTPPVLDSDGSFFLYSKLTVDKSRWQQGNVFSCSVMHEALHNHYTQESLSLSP
# light: B1 light
# notes: as for B1
# B12: GpH7-B3 variant P331_09D/GpL16-k0 (antibody, human IgG1, kappa)
# heavy: not shown
# light: B1 light
# notes: as for B1
# B13: GpH7-B3 variant P331_06M/GpL16-k0 (antibody, human IgG1, kappa)
# heavy: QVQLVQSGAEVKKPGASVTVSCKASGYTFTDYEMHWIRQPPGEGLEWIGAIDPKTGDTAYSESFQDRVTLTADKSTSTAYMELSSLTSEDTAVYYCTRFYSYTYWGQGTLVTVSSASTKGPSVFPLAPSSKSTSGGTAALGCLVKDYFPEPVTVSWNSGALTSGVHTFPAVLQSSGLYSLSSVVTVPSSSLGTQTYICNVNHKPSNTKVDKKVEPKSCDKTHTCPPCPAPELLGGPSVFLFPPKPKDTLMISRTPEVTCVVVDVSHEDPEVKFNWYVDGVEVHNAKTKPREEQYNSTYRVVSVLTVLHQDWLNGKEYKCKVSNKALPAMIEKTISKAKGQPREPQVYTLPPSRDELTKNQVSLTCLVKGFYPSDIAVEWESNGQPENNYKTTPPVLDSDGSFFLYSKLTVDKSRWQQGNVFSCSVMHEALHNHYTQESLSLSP
# light: B1 light
# notes: as for B1
# B14: GpH7-B3 variant P331_07I/GpL16-k0 (antibody, human IgG1, kappa)
# heavy: not shown
# light: B1 light
# notes: as for B1
# B15: GpH7-B3 variant P238_20W/GpL16-k0 (antibody, human IgG1, kappa)
# heavy: not shown
# light: B1 light
# notes: as for B1
# B16: GpH7-B3 variant S239_06M/GpL16-k0 (antibody, human IgG1, kappa)
# heavy: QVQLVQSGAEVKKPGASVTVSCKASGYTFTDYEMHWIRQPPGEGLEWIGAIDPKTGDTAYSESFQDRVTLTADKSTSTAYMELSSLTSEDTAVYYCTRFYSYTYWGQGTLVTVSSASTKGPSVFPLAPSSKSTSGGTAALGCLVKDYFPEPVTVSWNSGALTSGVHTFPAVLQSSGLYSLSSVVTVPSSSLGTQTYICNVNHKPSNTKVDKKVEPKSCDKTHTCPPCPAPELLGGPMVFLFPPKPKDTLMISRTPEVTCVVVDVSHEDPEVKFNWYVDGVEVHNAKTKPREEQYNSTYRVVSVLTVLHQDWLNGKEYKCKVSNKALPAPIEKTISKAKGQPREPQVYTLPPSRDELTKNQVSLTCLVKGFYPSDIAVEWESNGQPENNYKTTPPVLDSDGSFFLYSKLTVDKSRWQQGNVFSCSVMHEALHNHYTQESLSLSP
# light: B1 light
# notes: as for B1
# B17: GpH7-B3 variant P238_15Y/GpL16-k0 (antibody, human IgG1, kappa)
# heavy: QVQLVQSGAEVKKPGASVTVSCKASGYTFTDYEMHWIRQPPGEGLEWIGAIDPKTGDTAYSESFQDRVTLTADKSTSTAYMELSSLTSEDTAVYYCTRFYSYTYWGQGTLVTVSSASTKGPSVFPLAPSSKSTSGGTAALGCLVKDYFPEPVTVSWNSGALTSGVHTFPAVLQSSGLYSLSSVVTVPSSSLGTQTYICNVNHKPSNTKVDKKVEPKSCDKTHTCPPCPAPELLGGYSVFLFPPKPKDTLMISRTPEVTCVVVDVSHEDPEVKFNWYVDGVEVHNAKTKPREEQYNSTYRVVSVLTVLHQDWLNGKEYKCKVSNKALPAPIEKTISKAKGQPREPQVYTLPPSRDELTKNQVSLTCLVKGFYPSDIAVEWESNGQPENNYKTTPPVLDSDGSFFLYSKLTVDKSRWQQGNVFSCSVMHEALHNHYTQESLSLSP
# light: B1 light
# notes: as for B1
# B18: GpH7-B3 variant S267_19Q/GpL16-k0 (antibody, human IgG1, kappa)
# heavy: not shown
# light: B1 light
# notes: as for B1
# B19: GpH7-B3 variant Q295_10E/GpL16-k0 (antibody, human IgG1, kappa)
# heavy: not shown
# light: B1 light
# notes: as for B1
# B20: GpH7-B3 variant P238_16H/GpL16-k0 (antibody, human IgG1, kappa)
# heavy: not shown
# light: B1 light
# notes: as for B1
# B21: GpH7-B3 variant P331_10E/GpL16-k0 (antibody, human IgG1, kappa)
# heavy: not shown
# light: B1 light
# notes: as for B1
# B22: GpH7-B3 variant S239_07I/GpL16-k0 (antibody, human IgG1, kappa)
# heavy: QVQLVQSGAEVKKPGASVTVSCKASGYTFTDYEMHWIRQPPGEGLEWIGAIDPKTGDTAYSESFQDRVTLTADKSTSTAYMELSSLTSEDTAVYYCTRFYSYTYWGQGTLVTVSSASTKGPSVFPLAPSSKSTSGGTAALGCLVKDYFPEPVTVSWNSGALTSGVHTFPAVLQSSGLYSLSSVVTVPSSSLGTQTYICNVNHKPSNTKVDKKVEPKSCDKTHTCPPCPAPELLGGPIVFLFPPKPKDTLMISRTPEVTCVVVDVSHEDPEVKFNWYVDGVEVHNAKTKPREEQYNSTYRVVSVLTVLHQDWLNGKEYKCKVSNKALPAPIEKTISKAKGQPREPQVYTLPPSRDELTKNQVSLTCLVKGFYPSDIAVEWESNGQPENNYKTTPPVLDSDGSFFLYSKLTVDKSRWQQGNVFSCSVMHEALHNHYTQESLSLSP
# light: B1 light
# notes: as for B1
# B23: GpH7-B3 variant P331_13S/GpL16-k0 (antibody, human IgG1, kappa)
# heavy: not shown
# light: B1 light
# notes: as for B1
# B24: GpH7-B3 variant P238_19Q/GpL16-k0 (antibody, human IgG1, kappa)
# heavy: not shown
# light: B1 light
# notes: as for B1
# B25: GpH7-B3 variant P331_08L/GpL16-k0 (antibody, human IgG1, kappa)
# heavy: not shown
# light: B1 light
# notes: as for B1
# B26: GpH7-A5/GpH7-B3 variant G236_04F/GpL16-k0 (antibody, human IgG1, kappa)
# heavy 1: not shown
# heavy 2: not shown
# light: B1 light
# notes: heterodimerized, mutation in one H chain only; also called He Ab
# B27: GpH7-A5/GpH7-B3 variant G236_15Y/GpL16-k0 (antibody, human IgG1, kappa)
# heavy 1: not shown
# heavy 2: not shown
# light: B1 light
# notes: as for B26
# B28: GpH7-A5/GpH7-B3 variant I336_10E/GpL16-k0 (antibody, human IgG1, kappa)
# heavy 1: not shown
# heavy 2: not shown
# light: B1 light
# notes: as for B26
# B29: GpH7-A5/GpH7-B3 variant S267_10E/GpL16-k0 (antibody, human IgG1, kappa)
# heavy 1: not shown
# heavy 2: not shown
# light: B1 light
# notes: as for B26
# B30: GpH7-A5/GpH7-B3 variant L234_20W/GpL16-k0 (antibody, human IgG1, kappa)
# heavy 1: not shown
# heavy 2: not shown
# light: B1 light
# notes: as for B26
# B31: GpH7-A5/GpH7-B3 variant K326_07I/GpL16-k0 (antibody, human IgG1, kappa)
# heavy 1: not shown
# heavy 2: not shown
# light: B1 light
# notes: as for B26
# B32: GpH7-A5/GpH7-B3 variant K326_01G/GpL16-k0 (antibody, human IgG1, kappa)
# heavy 1: not shown
# heavy 2: not shown
# light: B1 light
# notes: as for B26
# B33: GpH7-A5/GpH7-B3 variant S267_09D/GpL16-k0 (antibody, human IgG1, kappa)
# heavy 1: not shown
# heavy 2: not shown
# light: B1 light
# notes: as for B26
# B34: GpH7-A5/GpH7-B3 variant I336_03V/GpL16-k0 (antibody, human IgG1, kappa)
# heavy 1: not shown
# heavy 2: not shown
# light: B1 light
# notes: as for B26
# B35: GpH7-A5/GpH7-B3 variant I336_18N/GpL16-k0 (antibody, human IgG1, kappa)
# heavy 1: not shown
# heavy 2: not shown
# light: B1 light
# notes: as for B26
# B36: GpH7-A5/GpH7-B3 variant L234_15Y/GpL16-k0 (antibody, human IgG1, kappa)
# heavy 1: not shown
# heavy 2: not shown
# light: B1 light
# notes: as for B26
# B37: GpH7-A5/GpH7-B3 variant S239_08L/GpL16-k0 (antibody, human IgG1, kappa)
# heavy 1: not shown
# heavy 2: not shown
# light: B1 light
# notes: as for B26
# B38: GpH7-A5/GpH7-B3 variant S239_10E/GpL16-k0 (antibody, human IgG1, kappa)
# heavy 1: not shown
# heavy 2: not shown
# light: B1 light
# notes: as for B26
# B39: GpH7-A5/GpH7-B3 variant K334_13S/GpL16-k0 (antibody, human IgG1, kappa)
# heavy 1: not shown
# heavy 2: not shown
# light: B1 light
# notes: as for B26
# B40: GpH7-A5/GpH7-B3 variant K334_19Q/GpL16-k0 (antibody, human IgG1, kappa)
# heavy 1: not shown
# heavy 2: not shown
# light: B1 light
# notes: as for B26
# B41: GpH7-A5/GpH7-B3 variant K326_12R/GpL16-k0 (antibody, human IgG1, kappa)
# heavy 1: not shown
# heavy 2: not shown
# light: B1 light
# notes: as for B26
# B42: GpH7-A5/GpH7-B3 variant G236_14T/GpL16-k0 (antibody, human IgG1, kappa)
# heavy 1: not shown
# heavy 2: not shown
# light: B1 light
# notes: as for B26
# B43: GpH7-A5/GpH7-B3 variant L234_04F/GpL16-k0 (antibody, human IgG1, kappa)
# heavy 1: not shown
# heavy 2: not shown
# light: B1 light
# notes: as for B26
# B44: GpH7-A5/GpH7-B3 variant S337_07I/GpL16-k0 (antibody, human IgG1, kappa)
# heavy 1: not shown
# heavy 2: not shown
# light: B1 light
# notes: as for B26
# Target: T1, FcγRIIa R (human FcγRIIa, allotype R, …)
# Assay: SPR (Biacore), relative binding vs GpH7-B3/GpL16-k0
# Procedure: Analysis of interaction between objective antibody and the FcγR was carried out using Biacore T100 (GE Healthcare). HBS-EP+ (GE Healthcare) was used as the running buffer, and the measurement temperature was set to 25° C. Chips produced by immobilizing the antigen peptide by the amine coupling method to a Series S Sencor Chip CM5 (GE Healthcare), or alternatively, chips produced by allowing preliminarily biotinylated antigen peptides to interact with and immobilize onto a Series S Sensor Chip SA (certified) (GE Healthcare) were used. Antibodies of interest were captured onto an antigen peptide-immobilized chip, and allowed to interact to each FcγR diluted with running buffer. To regenerate and repeatedly use the chip, the antibodies captured on the chip were washed off by reacting 10 mM glycine-HCl, pH 1.5.
# The FcγR-binding activity of each antibody was assessed primarily using as an indicator the FcγR-binding activity and dissociation constant for FcγR.
row,Binder,Ho/Con_2aR
1,B1,"102 relative, control = 100"
2,B2,"93.9 relative, control = 100"
3,B3,"88.8 relative, control = 100"
4,B4,"76.9 relative, control = 100"
5,B5,"102 relative, control = 100"
6,B6,"89.1 relative, control = 100"
7,B7,"80.8 relative, control = 100"
8,B8,"92.4 relative, control = 100"
9,B9,"167 relative, control = 100"
10,B10,"92.3 relative, control = 100"
11,B11,"21.4 relative, control = 100"
12,B12,"88.8 relative, control = 100"
13,B13,"79.8 relative, control = 100"
14,B14,"67 relative, control = 100"
15,B15,"25.7 relative, control = 100"
16,B16,"82.9 relative, control = 100"
17,B17,"95.9 relative, control = 100"
18,B18,"110 relative, control = 100"
19,B19,"99.2 relative, control = 100"
20,B20,"25.5 relative, control = 100"
21,B21,"94.6 relative, control = 100"
22,B22,"85.3 relative, control = 100"
23,B23,"87.8 relative, control = 100"
24,B24,"19.4 relative, control = 100"
25,B25,"74.4 relative, control = 100"

# Target: FcγRIIa H (human FcγRIIa, allotype with His at position 131), extracellular domain with C-terminal His tag (human, UniProt P12318 34-217)
# Assay: SPR (Biacore), antibody captured on antigen peptide chip, FcγR as analyte; relative to HeCon Ab GpH7-A5/GpH7-B3/GpL16-k0 = 100
row,Binder,He/Con_2aH [control = 100]
1,B26,118
2,B27,136
3,B28,102
4,B29,102
5,B30,114
6,B31,100
7,B32,100
8,B33,105
9,B34,102
10,B35,103
11,B36,120
12,B37,105
13,B38,112
14,B39,102
15,B40,101
16,B41,101
17,B42,103
18,B43,120
19,B44,101
